Test results from PMC10411625, “Rationally designed stapled peptides allosterically inhibit PTBP1–RNA-binding” (Chemical Science, 2023).

Test: circular dichroism
Settings: 20 mM sodium phosphate, 10 mM NaF; pH 8; 20 °C; 50 uM

CC(=O)N[C@@H](CC(N)=O)C(=O)N[C@@H](CCC(N)=O)C(=O)N[C@@]1(C)CCCC=CCCC[C@]2(CCCC=CCCC[C@](C)(C(=O)N[C@H](C(=O)N[C@@H](CC(=O)O)C(N)=O)C(C)C)NC(=O)[C@H](CCC(N)=O)NC(=O)[C@H](CC(C)C)NC(=O)[C@H](C)NC2=O)NC(=O)[C@H](CCC(N)=O)NC(=O)[C@H](C)NC(=O)[C@H](CCCNC(=N)N)NC1=O
helicity: 98.2%

CC(=O)N[C@@H](CC(N)=O)C(=O)N[C@@H](CCC(N)=O)C(=O)N[C@@H](C)C(=O)N[C@@H](CCCNC(=N)N)C(=O)N[C@@H](C)C(=O)N[C@@H](CCC(N)=O)C(=O)N[C@@]1(C)CCCCCCCC[C@@](C)(C(=O)N[C@H](C(=O)N[C@@H](CC(N)=O)C(N)=O)C(C)C)NC(=O)[C@H](CCC(N)=O)NC(=O)[C@H](CC(C)C)NC(=O)[C@H](C)NC1=O
helicity: 57.8%

CC(=O)N[C@@H](CC(N)=O)C(=O)N[C@@H](CCC(N)=O)C(=O)N[C@@]1(C)CCCC=CCCC[C@]2(CCCC=CCCC[C@](C)(C(=O)N[C@H](C(=O)N[C@@H](CC(N)=O)C(N)=O)C(C)C)NC(=O)[C@H](CCC(N)=O)NC(=O)[C@H](CC(C)C)NC(=O)[C@H](C)NC2=O)NC(=O)[C@H](CCC(N)=O)NC(=O)[C@H](C)NC(=O)[C@H](CCNC(=N)N)NC1=O
helicity: 100%

CC(=O)N[C@@H](CC(N)=O)C(=O)N[C@@H](CCC(N)=O)C(=O)N[C@@]1(C)CCCC=CCCC[C@]2(CCCC=CCCC[C@](C)(C(=O)N[C@H](C(=O)N[C@@H](CC(N)=O)C(N)=O)C(C)C)NC(=O)[C@H](CCC(N)=O)NC(=O)[C@H](CC(N)=O)NC(=O)[C@H](C)NC2=O)NC(=O)[C@H](CCC(N)=O)NC(=O)[C@H](C)NC(=O)[C@H](CCCNC(=N)N)NC1=O
helicity: 100%

CC(=O)N[C@@H](CC(N)=O)C(=O)N[C@@H](CCC(N)=O)C(=O)N[C@@H](C)C(=O)N[C@@H](CCCNC(=N)N)C(=O)N[C@@H](C)C(=O)N[C@@]1(C)CCCCCCCC[C@@](C)(C(=O)N[C@@H](C)C(=O)N[C@H](C(=O)N[C@@H](CC(N)=O)C(N)=O)C(C)C)NC(=O)[C@H](CC(C)C)NC(=O)[C@H](C)NC(=O)[C@H](C)NC1=O
helicity: 77.3%

CC(=O)N[C@@H](CC(N)=O)C(=O)N[C@@H](CCC(N)=O)C(=O)N[C@@]1(C)CCCCCCCC[C@@](C)(C(=O)N[C@@H](C)C(=O)N[C@@H](CC(C)C)C(=O)N[C@@H](CCC(N)=O)C(=O)N[C@@H](C)C(=O)N[C@H](C(=O)N[C@@H](CC(N)=O)C(N)=O)C(C)C)NC(=O)[C@H](CCC(N)=O)NC(=O)[C@H](C)NC(=O)[C@H](CCCNC(=N)N)NC1=O
helicity: 92.3%

Ac-NQARAQAALQAVNR-NH2
helicity: 20.2%

CC(=O)N[C@H](C(=O)N[C@@H](CCC(N)=O)C(=O)N[C@@]1(C)CCCC=CCCC[C@]2(CCCC=CCCC[C@](C)(C(=O)N[C@H](C(=O)N[C@@H](CC(N)=O)C(N)=O)C(C)C)NC(=O)[C@H](CCC(N)=O)NC(=O)[C@H](CC(C)C)NC(=O)[C@H](C)NC2=O)NC(=O)[C@H](CCC(N)=O)NC(=O)[C@H](C)NC(=O)[C@H](CCCNC(=N)N)NC1=O)C(C)C
helicity: 100%

CC(=O)N[C@@H](CC(N)=O)C(=O)N[C@@H](CCC(N)=O)C(=O)N[C@@]1(C)CCCC=CCCC[C@]2(CCCC=CCCC[C@](C)(C(=O)N[C@H](C(=O)N[C@@H](CC(N)=O)C(N)=O)C(C)C)NC(=O)[C@H](CCC(N)=O)NC(=O)[C@H](CC(C)C)NC(=O)[C@H](C)NC2=O)NC(=O)[C@H](CCC(N)=O)NC(=O)[C@H](C)NC(=O)[C@H](CCCNC(=N)N)NC1=O
helicity: 100%
